Laboratory results reported in article PMC9801259.

Biological target: OGG1 (UniProt O15527 1-345)
Test: EMSA

OGG1, sequence (O15527 whole entry): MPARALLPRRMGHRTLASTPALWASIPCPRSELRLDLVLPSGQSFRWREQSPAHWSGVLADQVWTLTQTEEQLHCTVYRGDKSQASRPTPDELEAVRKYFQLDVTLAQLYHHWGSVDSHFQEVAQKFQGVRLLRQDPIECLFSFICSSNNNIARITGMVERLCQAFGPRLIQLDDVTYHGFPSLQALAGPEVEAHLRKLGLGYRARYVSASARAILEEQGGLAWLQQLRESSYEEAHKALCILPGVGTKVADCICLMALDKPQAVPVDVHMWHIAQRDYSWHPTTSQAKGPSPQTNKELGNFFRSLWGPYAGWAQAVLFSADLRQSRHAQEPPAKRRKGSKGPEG

B1: 8-oxo(d)Gua and NF-kB motif probe (Cxcl2 promoter) (dsDNA)
DNA 1: TTCCCTGGTCCCCGGGCTTTTCCAGACATCG
DNA 2: CGATGTCTGGAAAAGCCCGGGGACCAGGGAA
modifications: 8-oxo-dG in antisense strand, printed CCAG*GGAA (G after the asterisk, position 28)
binding result: binds
